Measured values: patent publication US20260218135A1 (REGENTS OF THE UNIVERSITY OF COLORADO A BODY CORPORATE, published 2026)

B1: N-terminal fragment of HA-PEG10 (22 kDa self-cleavage product, N-terminal ~100 amino acids) (other, Homo sapiens, UniProt Q86TG7 1-111, looked up)
chain: MTERRRDELSEEINNLREKVMKQSEENNNLQSQVQKLTEENTTLREQVEPTPEDEDDDIELRGAAAAAAPPPPIEEECPEDLPEKFDGNPDMLAPFMAQCQIFMEKSTRDF
notes: A band on the blot; The construct that mimics it (AA1-111) is m6; also called NTF; shorter proteolytically cleaved N-terminal fragment; not shown: 2x HA tag (N-terminal) of the parent HA-PEG10 construct
B2: HA-N-terminal fragment construct (2x HA-tagged human PEG10, AA1-111) (other, Homo sapiens, UniProt Q86TG7 1-111, looked up)
chain: B1 chain
notes: range 1-111; Truncation construct that mimics the natural self-cleavage of PEG10; also called HA-NTF; not shown: 2x HA tag (N-terminal)
B3: HA-capsid^CTD (human PEG10, AA161-259, 1x HA C-terminal) (other, Homo sapiens, UniProt Q86TG7 161-259, looked up)
chain: PQRREVAKRKIRRLRQGMGSVIDYSNAFQMIAQDLDWNEPALIDQYHEGLSDHIQEELSHLEVAKSLSALIGQCIHIERRLARAAAARKPRSPPRALVL
notes: range 161-259; not shown: 1x HA tag (C-terminal)

Key:
[1] = target: HA-PEG10 gag-pol (2x HA-tagged human PEG10, AA1-708) (Homo sapiens) (UniProt Q86TG7); test: cell-based or functional assay
[2] = target: T1, FLAG-HsRTL8c-3'UTR (3x FLAG-tagged human RTL8c, AA1-113) (Homo sapiens, UniProt A6ZKI3 1-113); test: crosslinking co-immunoprecipitation, IP-FLAG, HEK293 lysate, western blot
T1 construct: range 1-113; Expressed in HEK293 cells from pcDNA3.1; also called FLAG-RTL8c; human FLAG-RTL8; not shown: 3x FLAG tag (N-terminal)
Source text: HA-PEG10 was visible as four distinct bands representing gag-pol, gag, and two self-cleavage products generated via activity of the PEG10 protease domain^{16,36,37}. The 37 kDa band represents a retrovirus-like capsid fragment, and the 22 kDa band reflects a protein fragment consisting of the N-terminal ~100 amino acids of the protein (referred to as the ‘N-terminal fragment’, or ‘NTF’) 16. Upon immunoprecipitation of HA-PEG10, Applicants observed co-immunoprecipitation of FLAG-RTL8c (FIG. 3a).
Beads were first crosslinked to antibodies. Primary antibodies (5 μg) or isotype controls (5 μL) were incubated with 40 μL protein A (Invitrogen) or protein G (Pierce) bead slurry for 30 min to couple antibodies to beads. After coupling, beads were collected by centrifugation and the supernatant discarded. Unless otherwise stated, all incubations and washes were performed with end-over-end rotation at room temperature. All centrifugation to collect beads was performed 2,500×g for 2 min. Beads were washed twice (1 mL 0.2M sodium borate, pH 9 for 1 min), resuspended in 400 μL 20 mM dimethyl pimelimidate (DMP, Thermo) and incubated for 30 min to crosslink antibodies. After crosslinking, beads were washed twice (1 mL 0.2M ethanolamine (EMD Millipore) pH 8 for 5 min) and incubated in 1.4 mL 0.2M ethanolamine for two hr. Beads were then washed twice (1 mL PBS for 5 min). […]

[3] = target: T1, FLAG-HsRTL8c-3'UTR (3x FLAG-tagged …); test: co-immunoprecipitation with FLAG-RTL8c, western blot (FIG. S6b)

T1 sequence (A6ZKI3 whole entry, the tested form may be a part): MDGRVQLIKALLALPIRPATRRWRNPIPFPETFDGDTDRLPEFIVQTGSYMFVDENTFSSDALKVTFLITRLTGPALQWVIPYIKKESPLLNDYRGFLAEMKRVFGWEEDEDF

Molecule	binding result [2]	further results
HA-HsRTL8c-3'UTR (2x HA-tagged human RTL8c, AA1-113) (from UniProt A6ZKI3 1-113)		abundance of HA-RTL8c relative to HA-PEG10 in the VLP fraction (western blot) [1]: 5%
B1	no binding	
B2		binding result [3]: no binding
B3	no binding	
